# According to the DeepSol protein solubility set:
# Experiment: soluble on expression in E. coli; label from the status in PepcDB or PDB records
row,Sequence,soluble on expression in E. coli
1,MGSDKIHHHHHHACSWVDDDRSDCPTGCWLKLSYTYNMLNVDAVTTQVKDVTLFILDQEGNYIVREEVDSLTFHQNECTIQVPSLPQGDYTFLVWAGLADSLYRHTPTSLTLLRNEAGEQSEKLSSLFHGRLDNVHISGEYQVLALSLTKNTNILSCILQSQSAAPLDTDDFRLELTARNGCMDHRNTPTDSVSTCYLPFMQESANLEDIQVVHAGMNTLRLMENDDTRLRLIHQPDGKEIFDIPLTPYLLLSRNVETTYMPPQEYLDRQDRYNLIFFLSPTNDPQKPYICLQMQVNGWIIRINDAELDK,not soluble
2,MGSDKIHHHHHHACVATAFSQTIEKENKIDVQKKNSSAEVSGRQLPEAKNIEPKLPDIEAKKLATDDKSMQTYGLTPSSPASGLSPYSYDFPALLESNPTLTDFYNFRQHSMNGQLSFIGSAEQKTYLGLGQYVAVNAGIRWIPSQRFFVEAGGDLSRQFYLALPIARQDIAGIYTRMRYSLVRNVRLNVWGQYFMGGNTPPPAYNPLFPHTGVGASISVDVKKNTEVSVGAEYQYDKKSREWKMETSGRVSIGF,not soluble
3,MGSDKIHHHHHHADKFVAKCPNEIFIGAILEANSINQDTYKFLKISMNPINMGYTIPIKSQTITPSYNNMMKAIHEALKTNDVLKSNYSFSFVIKKIKSYQELAVNWGQNINLQQLLGITPDYKPQKNIILIDINQSFFSIIMDMPESLSTDPQVLQQLDKLAFINSIQFGRKVILVIESNIDYDKLQEAIDNLLKSKEVSQKELAILANSNIRLMTIGNKEIKDINPDNPFTSILTYLSSTVTPDDFGGPISFSASNIKDNSVFVNYFNVQ,not soluble
4,MGSDKIHHHHHHADPFASITHLVDSAMVNKTDSIDREKTSDEPKPIEADESFDDFIYNFASDDALQRQRVVFPLPYYNGERASKIDRKYWKHDDLFAKQSYYTLLFDREEDMDLVGDTSLTSVQVEWIFVKKRMVKKYYFERIKGAWMLEAINLRPIEENENEDFVEFFGHFATDSIFQSRRIRQPLVFVTTDPDDDFSILETTLDLNQWFAFKPALPADKLSNINYGQQNDDNASHKILALKGIGNGFSNILYFQRKDSGWELYKFEDTSI,not soluble
5,MGSDKIHHHHHHAEISDKVIRIGVLNDQSGVYADIAGTGSVEAARMAAEEFGGEIDGAKIEFVSADHQNKADIAANVANQWIDTGGVDAIVDIPNSSAMLAVQEIGRTKKRIVIASGGGSTDFTGPKCSPYGFHWTYDTYSLAKGTAESLVKDGGTTWYNIVVDYAFGHSLDTDTSRFITQAGGQVVGRVLHPLGTSDFSSYLLQAQGSGAKVIGVLSAGADTVNAIKQAAEFGITQGGQILAGLLIFDQTVHSLGLETAQGLRLTTGFYWDRTDATRAWSAEFLKRSTKNIPSMAHAGVYSGVRHYLAAIKAAGTDNADAVAAKMRETPVNDMFAENGTVRADGRMVHDMYLMEVKKPADSTSEWDLMRLVHVIPGEEAYRPLAEGGCPLVQ,not soluble
6,MGSDKIHHHHHHAGLDAVEIGTGGNPGNHHCPTDELLASEAARKEYLEKFTSRGLTISAFSCHDNPISPNKEEAAASDEILRKSIKLASLMNVPVVNTFSGTAGDSDDAKAPNWPVIPWPTVYSDIKTWQWETKLIPYWKEIGELAAASGVKIGIELHGGFLCHTPYTILKLREETNDAIGVNLDPSHLWWQGIDPVGAIKILGKAGAIHHFHAKDTYLDQDNINMYGLTDMQPYGDVQTRSWTFRSVGCGHSLTEWSDIMSALRTYGYDYVVSIEHEDPLMSIDEGFDRAVTNLQSILIKDKPLDMWWA,not soluble
7,MGSDKIHHHHHHAGVVVPKYTPSTENPGGPGEEPGDGLIDPAEPLDRGFMHLKGRELKSLNSISITGLNDGEKVILSTLAGLAARVTGDQVYINEGGPSSVWLKQMQNKYGIPVNTYNALAPLVQHYVETGVIKGYIVYTPYSEGQSHSINVATSLCGLLRGIAVPESLVDKVKAMGVTTELMDVRSYDEKWLYENYKDQLDKSLAADMKPEIFHHLRDYITMTNAFAFYDYNARRDWSWRTSILKDLDKGAYCFGYYDLDEWGMVNNASQLGVSMLPTDQAANLATLSSIYDTTGLKQRPATKEVVTEENVHYVTFLVSDGDNIAFNLWGQQGYMDHDLHGQFPLGYTISPSLYDLAPAALRWYYENSKEGDYFVAGPSGSSYIFPSKMSDADLDDYLAKLNEYVDKSGLNICNILDQKIMDNPKVYNKYLAQPNIDAIFYTGYGEKGDGRIKFSDNGKPVIEQRSVLWEGIDGGSNRGEESTVISQINSRSANPHSADGYTFVFVHCWTKNQQSIKTVIDGLNDNVRVVPVDQFVQLVKQNLGPK,not soluble
8,MGSDKIHHHHHHAPQPTVAVARGKDYARTTRSALALLGGMKRFVKPGDVVVLKPNMGWDRTPAQAANTHPLVVRALAEEALAAGAKRVKVFDRTCNDERRCYVQSGISDALKGMKGVELKFIENERFRRVPIKGAVLPAWELYDEALSADVFINVPVAKHHGLSRLTLGLKNVMGVMGGNRGSIHRHLDDALADINSVLKSHLTVIDATRILTDHGPQGGSPADVKVMDTVIASTDIVAADAYATTLFGLKPEDIPVTVAAHKRGLGEMNLKRVRIVTA,not soluble
9,MGSDKIHHHHHHCSEELDSQPMESYPEGGEPLDVVCKEYGISDYEDIELLSYYKNNLEQANFSGLREEKLWLASFNVKDKSPIINWTDELPFNRNRKIYKGYGEYEDVTIQQITMLQTMYFNPKEFVASLSYYFGKDYGYLALLFRHDTQTKEVQVKRSEILAGFQYSIINNDCCYSLSGDTLYIAEKGFGYSNVGTLYTSEFISHEEAIYTHRDNKGFFVGRRNFKLGEDLWHIQVPQLNDEPADAKIEVSVEDNSKRVWKYNVNIIHYDGTKKNVTFEVDIDNGTIKGENDYTSLIIGKWKKTSGDAVATHVTYKNDGTFEYTSTEDSSYKEVGKYKIDGNKLYEMYSDEEEWIINDILLLNSMTLSVQELEADGVTPTGQKYSYQRVE,not soluble
10,MGSDKIHHHHHHCVRVPTLMIVPEAAQSGVAETVFVASNRVFANGQFQSARQDDVTYTRFTVQIPQDRDAGAVRPGRARRTGPNLRTDFVASDGVHLGGEGRFQSELLAEARRRGTSEVMVFIHGFASSIGTGIYRTAQIRYDFEVPGVAVHYAWPSSGSYIGYAYDRDSALFARDGLEELITGIMQTDLDVVLVAHSLGSSVVMEVLRQLRIAGRNALIDRIHGVILFSPDLDVDVFRSQASRIGDLPQPFVIFTSQRDQALTFSSIMAGRTARVGNLATADQVAEFDVTLIDVSAFEGGVRDRLNHFAGATSQSAVQILRDAAQINSAFEDGPDARPGLLPGTILTIQNATLVLLDPEHAR,not soluble
11,MGSDKIHHHHHHDDDNTANPAEEVVKASKKHDTAILLCTFGSTFKESIKTYDATLADFQNAFPDADIYLSFTSRTCVNRVEAETGIARYQPDLWLQALGNAGYKKVAVQSLHIIPGEEYLSLMNTDVKKKFMIESFPSVQVVKSPCLVYNEEDVEAVAKVLYSHYSDKLADNKNILLLMGHGNPDKNYNANTKYTETEEAMQALAANKNVFVGTVDYGDMLFWPEEGEPNEECVYSKLTKYCEDHNLKPEEITISLAPFMSIAGDHAHNDLWGIEEGDDFSAAAPNADACWRLKLLKMGFKIDTKESHNGSLENCKIIGLGDYDAVRQIWVNHLKALYNDAEAWETGEDYQ,not soluble
12,MGSDKIHHHHHHDETDPILTQKNWDGTATYFQSSDEHGFSMYYKPQVGFVGDPMPFYDPVAKDFKVMYLQDYRPNPEATYHPIFGVATKDGATYESLGELISCGGRDEQDAAIGTGGTIYNPADKLYYTFYTGNKFKPSSDQNAQVVMVATSPDFKTWTKNRTFYLKGDTYGYDKNDFRDPFLFQTEDGVYHMLIATRKNGKGHIAEFTSADLKEWESAGTFMTMMWDRFYECPDVFKMGDWWYLIYSEQASFMRKVQYFKGRTLEDLKATTANDAGIWPDNREGMLDSRAFYAGKTASDGTNRYIWGWCPTRAGNDNGNVGDVEPEWAGNLVAQRLIQHEDGTLTLGVPDAIDRKYTSAQEVKVMAKDGNMIESGKTYTLGEGASVIFNRLKVHNKISFTVKTASNTDRFGISFVRGTDSASWYSIHVNADEGKANFEKDGDDAKYLFDNKFNIPADNEYRVTIYSDQSVCVTYINDQLSFTNRIYQMQKNPWSLCCYKGEITVSDVQVSTY,not soluble
13,MGSDKIHHHHHHDKMNKNTGALQFDSIQVNETAHLFNDTAKPACNIIINFAYPVKSSDDMLKDSLNAYFISVCFGDKYIGEKPEAVVKQYAKNYIDEYRHDQEPMYAEDEKNKESDAVVGAWYSYYKSIESHVQLYEKDLLVYRVDYNEYTGGAHGMYMSTFLNMDLTLMRPLRLDDIFVGDFQEALTDLIWNQLMADNKVTTHEALEDMGYASTGDIAPTENFYLSKEGITFYYNIYDITPYSMGPVKVTIPYSMMEHLLGSNPILGDLKD,not soluble
14,MGSDKIHHHHHHDLDENVYDKLPTDEFGTTEKQINAIMAPAYQSLKNMLAYDGPWGAADMTADILIAPTRVGGDWWDGGQYMEQCMHSWKPNSYSVENCWTYCTEGLTTVNSVYNIIEKSEAMSDELKLQYLSELRGLRAFWYYVIVDIFGNAPLVTDFEDTSLPSITSRADLYKYVVKELTEIIPNLRSDVSDASYGKFTQGAARMVLAKMYLNAEEWIGEPNWKGVVEQCDEIMKLEYIIEPNWKTNFEVHNEVSREIIFPICYKASDAWGNSIHLWTLHYLDPDVLGFTGGMWNGINAQPDFVRTFDTEDPRYEGSFLIGPMIDPSTGEILKTTLGHDLIHTIDLNVVPGTEKTDADGNLTPWGEVHQEDGARINKWVYEKGMQNTNMENDIAIFRLADVYLMKAEALVRMGGDLGEATRLVNAIRERAYGNSDHNYTSVTLDDIYNERGYELAFEFVRRQDMIRFGTYLKPRYMKPKQTPEYRKIFPIPFKAWQKNNNLVQNPGYPAF,not soluble
15,MGSDKIHHHHHHDNAGRVVEITSAPERVVSLSPAATRFLVFLGLEDKIVGVTDYDSYEAEKVGAMVPVNIEKVVSLNPDLVLMFGGFQLPEVPKLEKAGLKVLVVNPNSLNDIIRDVVLLGTIFDRRDLALEKSEKLREKMLEIGKKTYNVPPSKRPKVLYLISSPGPDVKEIWTCGMGSYLNEIISLAGGVNIASGIAGPNGWPQLSIEYVVSQNPDVIIVGVYIPGTENEEIKKILNFEPFKEINAVKNKRVFAVDGNVASQPSPDVFELLDLFYEFFYGGKGE,not soluble
16,MGSDKIHHHHHHDYEAVNTNPYGVSDGELGPLKYGARFMNMQQRVIPIGSPSLTTGPGNDLQNTDLISSGNYIGYFGNNNNWGFNNEANWNFTDSRMNYAYQNFYSQIFLPWNEIYEIAKDSDSPSEQAILEIANIVRNIAWLRATDVFGPIAYNSAGDGSIAPKFDSQEVVYRSMLADLSKSVELLNTISYSVMAQYDLIYNGNVQNWVKLANSLMLRIAVRVHFIDETLAKEYITKALDPKNGGVIEDISSEAKIKSSDKMPLLNSMLASVNEYNETRMGATIWGYLDGYKDPRLSAYFTEGTYGSGSWAQTGYFPVAPTNSKSKSETSYSAKFASRPKVDSNSPLYWFRASETYFLKAEAALYNLIGGDPKTFYEQGINISFQEQGVSGVATYLSGTGKPTGLTGSNYKYGTYNHDLSIGNTSPKWDDYTGNLSKQEEQLQKIITQKYLALYPNAVEAWTEYRRTGFPYLMKPMDEAAPGRIGASIEDCRVPERFRFAPTAYNSNPNMAEIPTLLGGGDIGATKLWWVRSNRPKQPNQ,not soluble
17,MGSDKIHHHHHHELGMQDNLNDSKILLSSDEYISIAYDNPGIITSEEAKQLVLDFNPTGLQTRNNNVKIMAISTYNVSSSSGLKTRVGSTNLTTIPVYKIEFLSDEGKGVAYVPADERFAKIMAYLPKTDLKDSVKYVDSKSMLYLSELSLLEDAKYYEKVKSELRAKTLAKIAKTLNVKAVRYDEIQDIIIVKDEILSRSEPTFPIGNPIGFAGLYCSSTEWNQDAPYNDLLQKENCDLYDTGSPTYEAVPAGCAVISIAQIMASLEPDLTVDGLKIDWNILKAQKQIIAPSSWQTPSSETTREMVAKLIKYIYIATNTQPVRNSSGYVTGSGTYSSDTSSFFYRFFSTSGLKNGWDGNAAFQSLQLAKLVWIAATSNRGGSHAFILDGFAYWRPQTRYLVKNFDFYFHANMGWGGYYDGFYLVNKDLSITFDTSNGSYDRNFSMIYNIINK,not soluble
